Assay results from publication PMC3029397.

Biological target: dual chain avidin dcAvd(I117C5→4S16C,V115H6→5)
Test: non-reducing SDS-PAGE; denatured in SDS-PAGE sample buffer without β-mercaptoethanol at 95°C for ten minutes, 15% gel, Coomassie staining

stoichiometry N: 2
Substance: dual chain avidin dcAvd(I117C5→4S16C,V115H6→5)
